In a protein production outcome set (Wang et al. 2014):

Experiment: label from the status in PepcDB records
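Further: failed if final PepcDB status was selected cloned or expressed and not failed if soluble or beyond.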

Sequence | protein production
MTVTDHILPTATNGRPPGLIIAAPSTNSGKTTVTLALHAALRRRSLTVQPYKCGPDYIDPAFHEIAAGRPCYNLDSWAFGQDRITYLLDAAAGADLCLAEGVMGLFDGGSARGAWGNGATADIAAFTGWPVVLVIDVAGQAQSAAALALGFARYRSDVRIAGVILNNVASARHEALVRDGFAAQDIPVLGGFERQRDLTLKNRHLGLVQARETARLDIRLQQLADSAVRGIDLDALIRAAQPARPIASTIRPLTPPGQRIALAHDDAFSFIYPHLTAGWRAAGAEIVPFSPLNDEGPDPSCDAAWLPGGYPELHAGRLAAATRFKAALGAFAETRAVHGECGGYMTLGAGLIDADGTRHAMAGLLGLETDFASRKLHLGYRLATLHADAAGKAAGSVLRGHEYHYARVVTVADEPLAEIRDPAGQLTDETGSRRGHVTGTFFHLIDVAEEAIALEHHHHHH | failed
MTVVVERQISHPPEKLWRALTQPHLIEEWLMKNDFKPAVGHRFNISADWGGVLDCEVLAVEPNKTLSYTWNLAHQDPAFDLRSVVTFTLTPTPTGTHLRMEQSGFRPDQRRAYGGAKMGWPQFFEKLEQLLDRTDLEHHHHHH | not failed
MTVVWINGAFGAGKTTTARELIELIPNSTLFDPEVVGGALAHLLPPKRLAEVGDFQDLPIWRRLVIDTAAALLADLGGTLVVPMTLLRQEYRDEIFGGLAARRIEVRHILLAPAETILRERIASREVPRDLPDGELRTRQWSYDHIEPYRAALASWLTADAHPVDTGALTPYEAAARVAEAVGSGAVPACEIVQTPEPTGETVAAGVLLFDERDRVLLVDPTYKPGWEFPGGVVEPGEAPARAGMREVAEETGLSLRDVPALLVVDWEPPAPPAYGGLRLLFDGGRLDAADAGRVLLPGPELRDWRFATEDEAAGLLPPVRYERLRWALRARERGAAHYLEAGTPVGLEHHHHHH | failed
MTVWDRPEPPHRPVPLDRERIVAAAVALADEGGLTAVSVRKVAARLDAGPMRLYGFISTKDELFDLMVDAVYAEILPEERAGDWREALRVLAHRTRQAALRHPWLADLLGGRPALGPNGLAVAEATLAALDGLADVDTVMRAVETVSSYFTGAVRREIADLRAERATGLSKPEWQREHGPHLTRMLATGRYPALAKAVHDGTHVDAEESFATGLDWVLDAVAVRLARPPGS | not failed
MTVWFVAAVAVLIIELLTGTVYLLVVSAALAGSGIAYGLTGSTPAAVLTAALLSALGIWFVHAKTAVGKVETDSYQDLDTGKYAEILRYTGGNRYEVFYRGTHWQAQNTGQEVFEPGTRALIVRKEGNLLIIANP | failed
MTWCSLSVISCTRFYSRQRTAMLNSLKQEKFLLLALLAAVAAYPLEHLLLGSGQGIALGAGLVLIGFIVMASMRVAHHAELLAEKVGDPYGTMILTLAAVLVEVVILAIMMSNEASPTLVRDTIYSAVMLDINGILGLAALMGGIKHGEQPYNDDSARTYSVMILTAMGVSMVVPEFIPEADWKVYSAFTIGAMVVLYTLFLRMQVGPHSYFFSYSYPEKRRNKEAQEQPHAINLAWSIGILVFGVVVIGALAEVMSKTLDLGLEGTGAPPVITAILVAAISAAPEILTALRAALANRMQSVVNVALGASLSTVILTVPVMEAMALYTGQPFQMAMTPVQTVMVFITLIVSAINLNDGETNAIEGMTHFVLFATFIMLSLLGL | failed
MTWLLFGAGNGVGGCLLQRAIECEQAVVLVLRNPEQAKHWREQGVTVVEGDACDPETVAEACRVAGPSAIVVSTMGGGTVNYQGHRTVIDGAEQAGIKRMLLVTSLGCGDSWPLLSPRARAAFGFAVREKSLAESWLQSSTLDHCIVRPGGLLDVVATHNAKLTQGAATLGLVSRSDVALAVDQLLQQPVFGNHIYNLIDPDLTMPAIPLEHHHHHH | failed
MTWPARRVLYAIWQDPWMTVSRATYISRMLALVNWATWPDDADTSDTPAACVDGDCSRPNAPGERYPTFRWSDALVRELDAVLLSTEPYRFTEDHADALERQIGKPVLLVDGEMLSWYGSRAVAGARYLRSLAQGFLEHHHHHH | failed
MTWQPFYVGTGQAPAGAEEQVVLPPAPPWREFPRRSQHRQFVPPPRLAEAVNAALALRRPLLVTGPAGSGKSTVIEQVAAELALGDVLRWHITSRSSLAEALYRYDALGRIHAQRLEGPGGSDDIAPFLRMGPLGTALLPSARPRALLIDEIDKSDLDLPSDLLDVLERGEFEIPELARYGTDVVPVREHGGERTHLIARGRVQCAEFPFIVMTSNGDRDFPAAFLRRCIRFTMPLPTPETLLRVVEAHMGPEKAAADETGRLITVFLERLTAGESLAVDQLLNAVHLLTGDGAPGDDRRQAIAELILRELSHALEHHHHHH | failed
MTWQQFKQQYLVRFWAPMPAVIAAGILSTYYFGLTGTFWAVTGEFTRWGGHLLQLVGANPETWGYFKVIGLQGSPLDRIDGMMIIGMFGGCIAAALWANNVKLRMPQSRIRIAQALIGGIIAGFGARLAMGCNLAAFFTGIPQFSLHAWFFALATAAGSYFGARFTLLPMFRIPVKLKKVDKASSVKQDENQARLRFRIGMLVFAAIIGWGLLTMFNAPKLGIAMLCGVGFGLLIERAQICFTSAFRDMWITGRTHMAKAIILGMAVSAIGIYSYVQLGVPPKIMWAGPNAVIGGLLFGFGIVLAGGCETGWMYRAVEGQVHFWWVGLGNVLGSTLLAYYWDDLAQPLATNWDKVNLLTSFGDKGGLLVTYLLLALSFAAMLLWEKRFFARKAKRDEQLIAEAA | failed
MTYLFVAAGGALGSTLRYWLSGLIAGAIGQSFPWGTLVINISGSIVIGAFATLTGPDGRVFIPGDWRQFFMVGVCGGYTTFSSFSLQTLTLAQEGQGLWAAANVVLSVVFCLIGVWLGHVGAVLINEGV | failed
MTYLQTTADFYAEVAQTPEVGLCCVQSSPLQLPGLVIPAVMQEMNYGCGSTVHPNELGNKSKVLYVGVGGGLEALQFAYFCRQPGAVIAVDPVEAMRQAAQRNLQLAAEKNDWFSVDFVDIRAGDAFTLPVPDNSVDVVAQNCLFNIFEPEDLSRALKEAYRVLKPHGRLIMSDPIAARPIPQHLRQDERLRAMCLSGALTYAEYIQHLIDTGFGQIEIRARRPYRLLDSVTYKLDENLLLESLDSVSFKVPIPSDGACVFTGKTAIYAGSDPLFDDQAGHILQQGVPSAVCDKTALNLGSTYPNKILITDSTWYYDGGGCC | failed
MTYQKIIDKINQQISQHVYLGASLALYDGQWQEFYLGETIPHHKTKAGLVYDLASVSKVVGVGTVIIFLLQANHLKLDEPLQAYYPNFHDSSVTIRQLLTHTSGIDPFIPNRNKLDFAALKQAINHIEVTKTKSFHYTDLNFILLGFLLEEFYDQSLDRIIKEHVLKPFGMEKTSFGPVKRAVPTGKTIPIGRVHDPKAQVLGIHTGSAGLFSNLEDLKCFVNHYLSDAFAKPLTQDFAYADKTRSLAWDLTGDWLFHTGYTGTFILLNIKKQSAAIFLSNRTYEKDERSQWILDRNDLIEVIKAALKKVSDSNCD | failed
MTYSFSKPVSWVFLFTAVIYLVSLSFIQYPATTVLKPIPIVCLIVGVFRTSLSSSAKILLILALVFSLAGDVVLTLPFSLQLELGIACFLLAHCFYITLFLKSFEFNRLHLFYYLPIFLFMGFAAFTMIPYLGNLLIPVMIYFCVLMLMVFSAFQVKKETLTISSGALFFLISDLTLALNLFIYTQADVRIFVMFTYYVAQFLLTFGLVRLYEKGG | failed
MTYVYRKNPVAAATVTVKYIDTQGNSISDSIPLSGNVDQEYTTEQKIISGYTFKEVQGNKSGLFSTTPQTVTYIYTKNPIEIKTGTVTIKYVDTNGNSISDEITKSGNVGSLYTSEQKKILGYNFKEIQGIAEGQFTIESQTVTYVYTKISTPTIIKTSVIPPKTLSVKTLPKESLPETGDKFFGFTLLSGSLLILVSTTLYLLKSRKYK | failed
MVADAAAAGSGGVGVCARWPRASAEGARMKLTPRVHDWYVGRVVLSTVLLTWAVLLGLDLVNAFASEAKDIGQGSYTFGHAVAYVAYTVPRRAYTLFPTAAVIGALMGLGQLAATSELTALRALGVSRKRMSASVVAAMALLTASMVISGETIGPWAQNQADTLKASARYNSDMAASLYAGLWAREGDTFLNALSGEEKLLDGGDTALDLHDVRLYHLDSSGRMQQLTYASVAEHRDGRWTLRQVRRDTFQERSVQRETFPELPWQSQLNPAALAAGLAKPRNLSAHDLEQSIEYRSRNGLDARDYEDQYWSRWFYPLNVLALCMAAIPFSFGSLRSGGLGKRLFLGILFALGFWLLQLFFGRMAGALKLDYRIAYALPPMVMLGVSAWLFRRRSS | failed
MVAKGLIRIVLDILKPHEPIIPEYAKYLSELRGVEGVNITLMEIDKETENIKVTIQGNDLDFDEITRAIESYGGSIHSVDEVVAGRTMVEEVTTPQD | failed
MVAQNSVVVIGASGFGRESLDVLEAMKEAGHSLEIIGVVDDNPAAINLQRLAERKIEYLGTLKEWIEGSPKSCKYVLAIGNPTIRHKLSALLDKSGFDAFTAVHPSAVIGSQVVFGSGAVVCSGAVISTNVRLGVHVHINPNVTIGHDSILEDYVSINPAATISGEVLIMEETLIGAAATVLQGLTIGNRSLVGASSCVTKDISAGKVVKGIPARLEHHHHHH | not failed
MVARDTTAPQVKIVNPVTGNVSGSNVPISVNASDDSGASGITYALYIDGVLKATGKGSTLGYNWNIRNVAAGAHTVQVVAKDAAGNSASSSLEHHHHHH | not failed
MVAVTYSPGPHLERFLASLSLATERPVSVLLADNGSTDGTPQAAVQRYPNVRLLPTGANLGYGTAVNRTIAQLGEMAGDAGEPWVDDWVIVANPDVQWGPGSIDALLDAASRWPRAGALGPLIRDPDGSVYPSARQMPSLIRGGMHAVLGPFWPRNPWTTAYRQERLEPSERPVGWLSGSCLLVRRSAFGQVGGFDERYFMYMEDVDLGDRLGKAGWLSVYVPSAEVLHHKAHSTGRDPASHLAAHHKSTYIFLADRHSGWWRAPLRWTLRGSLALRSHLMVRRSRRRKLKLVEGRH | failed
MVCYNNPMELLMKIIAFSCHLFFIGLSYQLLISVIDWTKFSHYHPENLGRLRLFVFLLATALGYLVSHCMLELLQISQTLFFEFR | failed
MVDFIRRIQISCVVSLTDSRHQRRTKSHHHPLNPPNPVAESRKRSKGKQKEKVNNMVLFDQATYDKLMSEAPKFKLITPSILSDRLRINGSLARKAIRDLMVKGTIRMVSTHSSQQINTRATCLT | failed
MVDMDWKRKMVSSDLPNSPKLSSKLHVTIPSPFKIVPVSSPISCSAPALCSAYELYLRLPELRKLWSSRDFPQWTSEPILKPALQALEISFRLVFAVCSDTRPYINHREWNRRLDSLITKQIQLVAAICEDEEEEGISAEAPVGGGRSSLSLLPQLATWRRSEALGKKILYTIDNEMSRCKYTLGLGEQNIAGKPNLRYDAICRPNEIYSLKDNPYADHIDNHENQTLYIIHQILESWIYASGNLLNRIVSSIEEEKFGKASNDVYLLEKIWKILAEIEDLHMLMDPEDFLKLKKQLQIKSTGKNDAFCFRSKGLVEMMKMSKDLRQKVPAVLAVEVDPTGGPRLQEAAMKLYARKTECDKIHLLQGMQAVEAAAKSFFFGYRQLVAAMMGSAEMNATASQESCDSLSQIFMEPTYFPSLDAAKTFLGEFWSHLG | failed
MVDSYDDSLDGEKSKTQVKRELHALVDLGERLTTLKADVLAKLPLTDALRKALAEAPKHTANIARKRHILFIGKLMRDQDQEAILVLLDQLDASTRQYNERFHNLERWRDRLIAGDDADLEKFVIEYPDADRQQLRSLIRQAQHEVARNKPPATSRKIFKYIRELDELQ | not failed
MVDSYDDSLDGEKSKTQVKRELHALVDLGERLTTLKADVLAKLPLTDALRKALAEAPKHTANIARKRHILFIGKLMRDQDQEAILVLLDQLDASTRQYNERFHNLERWRDRLIAGDDADLEKFVIEYPDADRQQLRSLIRQAQHEVARNKPPATSRKIFKYIRELDELQRGLR | not failed
